Experimental data as given in paper PMC8038949, “Structural basis for the DNA-binding activity of human ARID4B Tudor domain”.

T1: ARID4B TD121 (Homo sapiens, UniProt Q4LE39 1-121)
T1 sequence: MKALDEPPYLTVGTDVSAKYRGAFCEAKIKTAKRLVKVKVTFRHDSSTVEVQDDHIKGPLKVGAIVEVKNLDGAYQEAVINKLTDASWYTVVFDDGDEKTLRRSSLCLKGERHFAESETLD

T2: ARID4B TD151 (Homo sapiens, UniProt Q4LE39 1-151)
T2 sequence: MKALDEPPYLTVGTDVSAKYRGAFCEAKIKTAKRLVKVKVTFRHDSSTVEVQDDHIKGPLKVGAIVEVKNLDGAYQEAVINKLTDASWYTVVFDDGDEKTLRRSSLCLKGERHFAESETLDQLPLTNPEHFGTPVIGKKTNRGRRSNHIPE

T3: ARID4A TD151 (Homo sapiens, UniProt P29374 4-151)
T3 sequence: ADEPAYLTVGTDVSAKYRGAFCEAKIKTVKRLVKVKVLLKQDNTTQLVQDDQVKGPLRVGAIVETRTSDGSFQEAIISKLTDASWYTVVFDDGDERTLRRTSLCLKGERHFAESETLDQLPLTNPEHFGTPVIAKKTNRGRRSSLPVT


Experiments:
[1] = target: T1, ARID4B TD121; experiment: NMR titration; n fixed 3; 50 mM Tris-HCl pH 7.6, 50 mM NaCl (buffer A); ITC 25 C; EMSA 4 C, 12 uM DNA, 8% native gel in TBE; NMR titration by 1H-15N HSQC (temperature not stated for titration; buffer A also defined elsewhere as 20 mM phosphate, 100 mM NaCl, pH 7.0); settings: protein: recombinant; 5' overhang 1 nt on each strand (11 bp paired)
[2] = target: T2, ARID4B TD151; experiment: NMR titration; n fixed 2; 50 mM Tris-HCl pH 7.6, 50 mM NaCl (buffer A); ITC 25 C; EMSA 4 C, 12 uM DNA, 8% native gel in TBE; NMR titration by 1H-15N HSQC (temperature not stated for titration; buffer A also defined elsewhere as 20 mM phosphate, 100 mM NaCl, pH 7.0); settings: protein: recombinant; chain copies: 3; 5' overhang 1 nt on each strand (11 bp paired)
[3] = target: T2, ARID4B TD151; experiment: NMR titration; n fixed 3; 50 mM Tris-HCl pH 7.6, 50 mM NaCl (buffer A); ITC 25 C; EMSA 4 C, 12 uM DNA, 8% native gel in TBE; NMR titration by 1H-15N HSQC (temperature not stated for titration; buffer A also defined elsewhere as 20 mM phosphate, 100 mM NaCl, pH 7.0); settings: protein: recombinant; chain copies: 3; 5' overhang 1 nt on each strand (17 bp paired)
[4] = target: T1, ARID4B TD121; experiment: NMR titration; n fixed 5; text says ~110; 50 mM Tris-HCl pH 7.6, 50 mM NaCl (buffer A); ITC 25 C; EMSA 4 C, 12 uM DNA, 8% native gel in TBE; NMR titration by 1H-15N HSQC (temperature not stated for titration; buffer A also defined elsewhere as 20 mM phosphate, 100 mM NaCl, pH 7.0); settings: protein: recombinant; 5' overhang 1 nt on each strand (17 bp paired)
[5] = target: T3, ARID4A TD151; experiment: NMR titration; n = 3; 50 mM Tris-HCl pH 7.6, 50 mM NaCl (buffer A); ITC 25 C; EMSA 4 C, 12 uM DNA, 8% native gel in TBE; NMR titration by 1H-15N HSQC (temperature not stated for titration; buffer A also defined elsewhere as 20 mM phosphate, 100 mM NaCl, pH 7.0); settings: protein: recombinant; 5' overhang 1 nt on each strand (17 bp paired)
[6] = target: T2, ARID4B TD151; experiment: ITC; 50 mM Tris-HCl pH 7.6, 50 mM NaCl (buffer A); ITC 25 C; EMSA 4 C, 12 uM DNA, 8% native gel in TBE; NMR titration by 1H-15N HSQC (temperature not stated for titration; buffer A also defined elsewhere as 20 mM phosphate, 100 mM NaCl, pH 7.0); settings: protein: recombinant; chain copies: 3; 5' overhang 1 nt on each strand (17 bp paired)

Row | Binder | Kd [1] [µM] | Kd [2] [µM] | Kd [3] [µM] | Kd [4] [µM] | Kd [5] [µM] | Kd [6] [µM]
1 | dsDNA2 (dsDNA) DNA 1: CTGTCAAAGGTG DNA 2: TCACCTTTGACA | 237 ± 7 | 79 ± 3 | – | – | – | –
2 | dsDNA1 (dsDNA) DNA 1: CTCAGGTCAAAGGTCACG DNA 2: TCGTGACCTTTGACCTGA | – | – | 22 | 111 ± 2 | 9.7 ± 0.9 | 27 ± 8
